Laboratory results from US20110009597A1, “RECOMBINANT GANODERMA LUCIDIUM IMMUNOMODULATORY PROTEIN (rLZ-8) AND USES THEREOF” (priority 2008, published 2011).

Tests used:
NB4 = assay: PI single stained flow cytometry, apoptosis of NB4; format: cell-based
Description: (§1) Fluorescence microscope, model Leica ASLMD, K562, NB4. rLZ-8 is classified into high, medium and low three-dose groups respectively, now we prepare them with IMDM culture medium containing 2% FCS into the preparation of 2.5 μg·ml^−1, 0.5 μg/ml, 0.1 μg·ml^−1. […] (PI) 50 μg·ml ^−1.
(§2) Establish K562 as the normal control group, rLZ-8 low-dose group (0.1 μg·ml^−1), rLZ-8 medium dose group (0.5 μg·ml^−1), rLZ-8 high-dose group, (2.5 μg·ml^−1); set NB4 as the normal control group, rLZ-8 low-dose group (0.1 μg·ml^−1), rLZ-8 medium dose group (0.5 μg·ml^−1), rLZ-8 high-dose group, (2.5 μg·ml^−1).
(§3) Mix K562 and NB4 cells into 24-orifice plate respectively, and supply rLZ-8 in different concentrates, 1 ml/orifice, set 3-orifice multipunches for each group. Put them in 37° C., 5% CO2 incubator for 24 h, collect the cells of each concentrate, PBS washes twice and regulates the cell density to 1×10^6/ml, 70% ice ethanol fixation, adjusts to −20° C. and stays overnight. Wash the cells with PBS twice after fixing the cells, add PI (end density 50 μg·ml^−1) for room temperature and lucifuged hatching 10 min, 1000 r·min^−1 centrifuge 5 min, clear supernatant with disposable 400μ. IPBS re-suspension precipitation. And test on computer in 1 h.

human erythrocyte = format: cell-based
Description: rLZ-8 prepares 5% of glucose solution into the preparation of 1 mg·ml^−1; blood cell suspension preparation: human blood 4 ml, 1000 r/min centrifugal 10 min, clears supernatant. […] Prepare the obtained erythrocyte with 5% glucose solution into 2% suspension for experiment.
Get 28 clean test tubes and number them, No. 1-5 for rLZ-8 drug group, No.6 for negative control group (5% glucose solution), No. 7 for positive control tube (distilled water), and a total of 4 parallel comparison tubes. By supplying 2% erythrocyte suspension, 5% glucose or distilled water in turn, shaking, put them into incubators 37° C.±0.5° C. immediately for incubation. Observe them every 15 min, 1 h after observe them once for 3 hours. Finishing the observation, put all the solution from the tubes into centrifugal drying tubes, 1500 r, 25 min. Clear the supernatant, read the blank distilled water tube for OD value to calculate the rate of hemolysis.

WBC = assay: Cyclophosphamide low-leucocyte mice model, WBC; format: in vivo; set-up: unit not given here
Description: rLZ-8 preparation of sterile saline. Divide them into 5 μg·kg^−1, 2.5 μg√kg^−1, 1.25 μg·kg^−1, 0.62 μg·kg^−1 dose groups.
Genlei™ Scimax™ [Recombinant human granulocyte colony-stimulating factor injection (rhG-CSF)], production lot: 20060403; 75 μg/vial is prepared with sterile normal saline into the preparation of 3.2 μg·kg^−1, 0.2 ml/vial.
Cyclophosphamide (CP) for injection (the production lot number 050216; 200 mg/vial) is prepared with sterile normal saline into the preparation of 12.5 mg·kg^−1, 0.2 ml/vial.
Normal control group, several protein dose groups, positive control group (Genlei™ Scimax™).
Excluding the normal control group (given same normal saline), each group of mice were given tail vein injection of cyclophosphamide, […], 0.2 ml/vial, for 3 consecutive days. On 3rd day, rat tail venous blood sampling, sent to Jilin University First Hospital laboratory, cell analyze the number of WBC. After successful modeling, they were given to the above groups respective dose of rLZ-8 and positive drugs (Genlei™ Scimax™) treatment, the normal control group and CP groups were given same normal saline, on the 3rd, 7th and 14th day of the treatment to draw venous blood from mice tail respectively, sent to Jilin University First Hospital testing the numbers of WBC. Compare WBC changes before and after the treatment for analysis of drug efficacy.

[1] = system: human red blood cells (A, B, O and AB blood type); assay: Red blood cell agglutination, human; format: cell-based
Description: A, B, O and AB blood type, from the healthy volunteers 2 ml respectively, SRBC (sheep red cell) 2 ml. Centrifuge the above RBC 1200 g·min^−1 for 10 min, clears the supernatant and wash with 5 ml PBS, repeat the above operation 3-5 times, and then uses 0.01 mol/L PBS suspension preparation of 1.5%. Prepare rLZ-8 with normal saline to final concentrations of 50 μg·ml^−1, 25 μg·ml^−1, 12.5 μg·ml^−1, 6.25 μg·ml^−1, 1.56 μg·ml^−1, 0.78 μg·ml^−1, 0.39 μg·ml^−1, 0.20 μg·ml^−1, 0.10 μg·ml^−1, 0.05 μg·ml^−1, 0.03 μg·ml^−1. Plant agglutinin (PHA) preparation Ibid.
Divide experiment subjects into rLZ-8 concentration groups, positive drug control, and normal control group.
On 96-orifice Hemagglutination board, we add A-type 1.5%, erythrocyte 25 μl/hole, and then add 0.2% gelatin, 75 μl/hole. Drug groups are added different concentrations of rLZ-8, till the final concentration as above-noted; positive drug control group PHA 25 μl/hole; normal control group PBS25μl/hole. 6 parallel control groups in each group. Shaking for 30 s under normal room temperature, 37° C. incubation, observe the subjects 1 h later. For B-type, AB-type, O-type, the same experiment methods are as SRBC (sheep red cell) above.

[2] = system: systemic allergic reaction caused by BSA; assay: Systemic allergic reaction in mice caused by BSA; conditions: for Death number/total / Sensitization number/total: sensitization BSA (i.p.)
Description: Prepare rLZ-8 700 μg/ml^−1 with saline and Aluminium hydroxide with PBS buffer. Male mice, 15 vial, were divided into 4 groups: two rLZ-8 dosage groups, positive group, normal control group. […] Positive reaction standard: tic or death. Negative reaction standard: normal.

K562 = assay: PI single stained flow cytometry, apoptosis of K562; format: cell-based
Description: as §1, §2, §3

[3] = rLZ-8 dose 2, shock BSA-rLZ-8 (i.v.)

B1: rLZ-8: Recombinant Ganoderma Lucidum Immune Regulatory Protein expressed in Pichia pastoris (protein, UniProt P14945 2-111, looked up)
Immunomodulatory protein Ling …: SDTALIFRLAWDVKKLSFDYTPNWGRGNPNNFIDTVTFPKVLTDKAYTYRVAVSGRNLGVKPSYAVESDGSQKVNFLEYNSGYGIADTNTIQVFVVDPDTNNDFIIAQWN
- Apoptosis rate (NB4; NB4, rLZ-8 0.1 μg·ml^−1, 24 h): 9.23%
- Apoptosis rate (NB4; NB4, rLZ-8 0.5 μg·ml^−1, 24 h): 27.51%
- Apoptosis rate (NB4; NB4, rLZ-8 2.5 μg·ml^−1, 24 h): 38.60%
- hmolytic rate (human erythrocyte): < 5%
- WBC, 3rdday of medication (WBC; rLZ-8 0.62 μg·kg−1): 6.4 ± 0.41
- WBC, 7thday of medication (WBC; rLZ-8 0.62 μg·kg−1): 27.2 ± 0.10
- WBC, 14thday of medication (WBC; rLZ-8 0.62 μg·kg−1): 13.9 ± 0.17
- WBC, 3rdday of medication (WBC; rLZ-8 1.25 μg·kg−1): 8.1 ± 0.17
- WBC, 7thday of medication (WBC; rLZ-8 1.25 μg·kg−1): 19.7 ± 0.17
- WBC, 14thday of medication (WBC; rLZ-8 1.25 μg·kg−1): 13.9 ± 0.14
- WBC, 3rdday of medication (WBC; rLZ-8 2.5 μg·kg−1): 6.6 ± 0.77
- WBC, 7thday of medication (WBC; rLZ-8 2.5 μg·kg−1): 22.8 ± 0.15
- WBC, 14thday of medication (WBC; rLZ-8 2.5 μg·kg−1): 15.2 ± 0.11
- WBC, 3rdday of medication (WBC; rLZ-8 5 μg·kg−1): 5.0 ± 0.12
- WBC, 7thday of medication (WBC; rLZ-8 5 μg·kg−1): 20.3 ± 0.11
- WBC, 14thday of medication (WBC; rLZ-8 5 μg·kg−1): 14.3 ± 0.21
- agglutination of four types of human red blood cells (in words) [1]: not agglutinative
- systemic allergic reaction caused by BSA (in words) ([2]; mouse, in vivo): could inhibit systemic allergic reaction
- Death number/total ([2]; rLZ-8 dose 1, shock BSA (i.v.)): 0/10
- Sensitization number/total ([2]; rLZ-8 dose 1, shock BSA (i.v.)): 5/10
- Death number/total [2, 3]: 0/10
- Sensitization number/total [2, 3]: 9/10
- Apoptosis rate (K562; K562, rLZ-8 0.1 μg·ml^−1, 24 h): 16.43%
- Apoptosis rate (K562; K562, rLZ-8 0.5 μg·ml^−1, 24 h): 17.91%
- Apoptosis rate (K562; K562, rLZ-8 2.5 μg·ml^−1, 24 h): 21.57%
